Measurements taken from the nanobody polyreactivity screen of Harvey et al. (2022).

Assay: yeast display, Sf9 membrane polyspecificity reagent, FACS + sequencing; frameworks hold sequencing errors
In short: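 Nanobodies from a synthetic yeast display library (Saccharomyces cerevisiae BJ5465), induced 36–48 hours with galactose, were stained 1 hour at 4 °C with 10% biotinylated, detergent-solubilized Sf9 membrane reagent, enriched on streptavidin microbeads, then FACS-sorted. Anti-HA (expression) and streptavidin (reagent binding) fluorescence set low and high (top ~1%) gates. Polyreactivity labels come from the gate of origin. Genes were colony-PCR amplified, MiSeq 2 × 250 sequenced and filtered by CDR length.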

Row | Sequence | polyreactivity (PSR sort gate)
1 | QVQLVESGGGLLQAGGSLRLSCAASGSIFRRNAMGWYRQAPGKERELVAAITTRGSRTTYADSVKGRFTISRDNAKNTVYLQMNSLKPEDTAVYYCAARQHFSYSFHVAYDYWGQGTQVTVSS | high polyreactivity
2 | QVQLVESGGGLLQAGGSLRLSCAASGSIFRYYAKGWYRQAPGKERELVAAISYSGGRTYYADSVKGRFTISRDNAKNTVYLQMNSLKPEDTAVYYCNAGAGKRGYDYWGQGTQVTVSS | low polyreactivity
3 | QVQLVESGGGLLQAGGSLRLSCAASGSIFSRYVMGWYRQAPGKERELVAGISGSGGSTYYADSVKGRFTISRDNAKNTVYLQMNSLKPEDTAVYYCNAATSRLYYNHYTRYNYWGQGTQVTVSS | high polyreactivity
4 | QVQLVESGGGLLQAGGSLRLSCAASGSIFTAYAMGWYRQAPGKESELVAAIDDSGDSTYYADSVKGRFTISRDNAKHTVYLQMNSLKTEDTAVYYCKAEYRVNKEYDDWGQGTQVTVSS | low polyreactivity
5 | QVQLVESGGGLLQAGGSLRLSCAASGSNFDRYGRGWYRQAPGTERELVADITSDGSTNYADSVKGRFTISRDNAKNTVYLQMNSLKPEDTAVYYCAVSYTAYSVGYDYWGQGTQVTVSS | low polyreactivity
6 | QVQLVESGGGLLQAGGSLRLSCAASGSTFHRNAMGWYRQAPGKERELVAAISWRAGSTYYADSVKGRFTISRDNAKNTVYLQMNSLKPEDTAVYYCNAVERYWDYGYWGQGTQVTVSS | low polyreactivity
7 | QVQLVESGGGLLQAGGSLRLSCAASGSTFKFNAMGWYRQAPRKERELVAAISNRGGTTYYADSVKGRFTISRDNAKNTVYFHMNSLKPEDTAVYYCAAGRVQSYYYWGQGTQVTVSS | high polyreactivity
8 | QVQLVESGGGLLQAGGSLRLSCAASGSTFRGNALGWYRQAPGKVRELVAAINSSGGRTYYADSVKGRFTISRDNAKNTVYLQMNSLKPEDTAVNYCAARGRRTGDYDYWGQGTQVTVSS | high polyreactivity
9 | QVQLVESGGGLLQAGGSLRLSCAASGSTFTAYAMGWYRQAPGKERELVADISDSGGSTYYADSEKGRFTISRDNAKNTVYLQINSLKPEDTAVYYCAVHVRAFVVSKFDSRGQGTQVTVSS | low polyreactivity
10 | QVQLVESGGGLLQAGGSLRLSCAASGSTFWFYAMGWYRQAPGKERELVDVISNSGSTYYADSEKGRFTISRDNAKNTVYLQMNSLKPEDTAVYNCAADGFYYPNWGRFSYYYWGQGTLVTVSS | low polyreactivity
11 | QVQLVESGGGLLQAGGSLRLSCAASGYTFWLYAMGWYRQAPGKDRELVATISRRAGTTYYADSVKGRFTISRDNAKNTVYLQMNSLKPEDTAVYYCAKKSHSLLGQYGEDYDYWGQGTQVTVSS | low polyreactivity
12 | QVQLVESGGGLLQAGGSLRLSCAASVRFLCYGWYRQAPGKERELVAAITWSGGSTYYADSVKGRFTISRDNAKNTVYLLMNSLKPEDTAVYYCARYPDSYWYGRKNYYWGQGTQVTVSS | high polyreactivity
13 | QVQLVESGGGLLQAGGSLRLSCADSGRTFCPNVMGCYRQAPGKERELVAAITWGDASTYYADSVKGRFTISRDNAKNTVYLQMNCLKPEDTAVYYCGAKSSTRGDYWGQGTQVTVSS | low polyreactivity
14 | QVQLVESGGGLLQAGGSLRLSCSASGRIFPSYAMGWYRQAPGKERELVAAISSSGGRTYYADSVKGRFTISRDNAKNTVYLQLNSLKPEDTAVYYCAARWVQYGVRYDFWGQGTQVTVSS | high polyreactivity
15 | QVQLVESGGGLLQAGGSLRVSCAASGFIFVLYAMGWYRQAPGKERELVAAITWSTGCTYYADSVKGRFTISRDNAKNTVYLHMNSLKPEDTAVYYCSADQYIFGIWFDYWGQGTQVTVSS | high polyreactivity
16 | QVQLVESGGGLLQAGGSLSLSCAASGRTFVPYTMGWYRPAPGKERELVAAISWSDGTTYYADSVKGRFTISRDNAKNTVYLQMNSLKPEDTAVYYCNDDVYLFNYFGGWYYAGYDYWGQGTQVTVSS | high polyreactivity
17 | QVQLVESGGGLLQEGGSLRLSCAASGRTFYYYTMGWYRQAPGIERELVAAITHGGSTYYADSVKGRFTISRDNAKNTVYLQMNSLTPEDTAVYYCNAVYHYPYEYWGHGTQVTVSS | high polyreactivity
18 | QVQLVESGGGLVEAGGSLRLSCAASGFIFGGYDMGWYRPAPGKQRELVAAITRSGGSTYYADSVKGRFTISRDNAKNTVYLEMNSLKPEDTAVYYCAAERQPYRTSSYNYWGQGTQVTVSS | high polyreactivity
19 | QVQLVESGGGLVEAGGSLRLSCAASGFNIPIYAMGWYRPAPGKERELVASITRSGGSTYYADSVKGRFTISRDNAMNTVYLQMNSLKPEDTAVYFCAASVKIISYLVHSELLGGELDYWGQGTQVTVSS | low polyreactivity
20 | QVQLVESGGGLVEAGGSLRLSCAASGIIFVSYDMGWYRQAPGKERELVAAINRGGRTYYADSVKGRFTISRDNAKNTVYLQMISLKPEDTAVYYCAAQFHFRPFSWTYDYWGQGTQVSVSS | high polyreactivity
21 | QVQLVESGGGLVEAGGSLRLSCAASGLTFYLYDMGWYRQAPGKERELVAAISRRGTSTYYADSVKGRFTISRDNAKNSVYLQMNSLKPEDTAVYYCAADRKVGRDYWGQGTQVTVSS | high polyreactivity

Row | Sequence | polyreactivity (PSR sort gate)
22 | QVQLVESGGGLVEAGGSLRLSCAASGRIFHANAMGWYRQAPGKERELVAGISRHGGRTYYADSVKGRFTMSRDNAKNTVYLQMNSLNPEDTAVYYCNALDWQYKELDYYWGQGTQVTVSS | high polyreactivity
23 | QVQLVESGGGLVEAGGSLRLSCAASGRTFFSNAMVWYRQAPGKERELVAAINRGGSTYYADSVKGRFTSSRDNAKNTVNLQMNSLKPEDTAVYYCAAGYWSKNSIHYYYWGQGTQVTVSS | high polyreactivity
24 | QVQLVESGGGLVEAGGSLRLSCAASGSTFRWYAMGWYRQAPGKERELVAAISRSGASTYDSDSVKGRFTISRDNAKNTVYLQMNSLKPEDTAVYYCAAKQRTKGDYWRQGTQVTVSS | high polyreactivity
25 | QVQLVESGGGLVEAGGSLRLSCAASGSTFSVNAMGRYRQAPGKERELVAAISYRGGSTYYADSVKGRFTISRDNAKNTVYFQMNSLKPEDTAVYYCNAQRYRPGYWYDYWGQGTQVTVSS | high polyreactivity
26 | QVQLVESGGGLVEAGGSLRLSCAASGSTFTYYAMGWFRPAPGKERELVAAISSSGTSTYYADSVKGRFTLSRDNEKNTVSLQLNSLKPEDPAVYYCAADYYHTRGEADYEYAYWGKGTQVTVSS | low polyreactivity
27 | QVQLVESGGGLVEAGGSLRLSCAASGSTVWRYAMGWYRQAPGKERELVAAISWNGGSTYYADSVKGRFTISRDNAKNTVYLQMHSLKPEDTAVYYCARGYSWSVGYPRVQDMDYWGQGTQVTVSS | high polyreactivity
28 | QVQLVESGGGLVEAGGSLRLSCAASVRTFRYYDMGWFRQAPGKQWELVAAITARGGSTYYADSVKGRFTISRDNEKNTDYLQMNSQKPEDTAVYYCNAYPLQIFYLGNRQYNYWRQGTQVTVSS | high polyreactivity
29 | QVQLVESGGGLVEAGGSLRLSCADSGRIFLRNAMGWSRQAPGKERELVAAINRGGRTNYADSVKGRFTISRDNAKNTVYLQMNSLKPEDTAVYYCATERESPGYTEYDSWGQGTQVTVSS | low polyreactivity
30 | QVQLVESGGGLVEAGGSLRLSCADSGRTFGSYTMGWYRQAPGKEREWVAAITSGGRTNYADSVKGRFTISRDNAKNTVYLQMNSLKPEDTAVYYCAPGWRGGRYRYFAYDYWGQGTQVTVSS | high polyreactivity
31 | QVQLVESGGGLVEAGGSLRLTCEASGSIISYYVMGWYRQAPGKERELVAAISSSGGRTYYADSVKGRFTISRDNSKNTVYLQMNSLKPDDNAVYYCAARDRPSPYYYWGQGTQVNVSS | high polyreactivity
32 | QVQLVESGGGLVHAGCSLRLSCAASGLIFGSYSMGWYRQAPGKERELVAAISRSGGSTYYADSVKGRFTISRDNAKNTVYFLMNSLKPEDTAVYYCAARGYPLGIGRIKRNYWGQGKQVTVSS | high polyreactivity
33 | QVQLVESGGGLVHAGCSLRLSCAATGIIFAWYVMGWYRPAPGKERELVAAITQSGGSTFYADSVKGRFTISRDNAKNTVYLQMNSLKPEDTAVYYCNTEDFFNVPEMDSWGQGTQVTVSS | low polyreactivity
34 | QVQLVESGGGLVHAGGFLRLSCAASGRIFRWNAMGWYRQAPGKERELVAAISWNGGRTYYADSVKGRFTISRDNAKNRVYFQMNSLKPEDTAVYYCAAPHSVPDLHSGDYWGQGTQVTVSS | low polyreactivity
35 | QVQLVESGGGLVHAGGPLRLSCAPSGFIFRGYAMGWYRQAPGKEREFVAAISGSGGSTYYADSVKGRFTISRDNAKNTVFLQMNSLKTDDTAVYYCNARFWGVWGGYDYWGQGTQVTVSS | high polyreactivity
36 | QVQLVESGGGLVHAGGRLRLRCAASGSIFGYYAMAWYRHAPGKETELVAAISRRGGRTYYADSVKGRFTISRDNAKNTVYLQMNSLKPEDTAVYYCAKDRYYSELQYPYYRGDYWGQGTQVTVSS | high polyreactivity
37 | QVQLVESGGGLVHAGGSHRLSCAASGLIFYDNMGWYRQAPGKERELVAAISSSGGSTSYADSVKGRFTISRDNAKNTVYLQMNSLKPEDTAVYYCAADSYPAYLGFVGFDYWGQGTQVTVSS | low polyreactivity
38 | QVQLVESGGGLVHAGGSIRLSCAASGRIFDYNVMGWYRQAQGTERELVAAISWDGDSTYYADSVKGRFTISRDNAKHTVYLQKNSLKPEDTAVYYCNRVEGRTRWADEMNYWGQGTQVTVSS | low polyreactivity
39 | QVQLVESGGGLVHAGGSLLLSCAASRFIFASNAMGWYRKAPAKERELVAAISSSGGRTYYADSVKGRFTISRDNAKNSVYLQMNSLKPEDTAVYYCAADWLVTYDYWGQGTQVTVSS | high polyreactivity
40 | QVQLVESGGGLVHAGGSLRIICAASGRIFYIYAMGWYRQAPGKERELVAAITKSGGSTTHYADSVKGRFTISRDNAKNTVYLQMNSLKPEDTEVYYCAVDARYSRSKYGYWGHGTQVTVSS | high polyreactivity
41 | QVQLVESGGGLVHAGGSLRLRCAASGSIFYDNAMGWYTQAPWKERELVASIRWSGDSTYYADSVKGRFTISRDNAKNTVYLQMTSLKPEDTAVYYCAADPVEPYFTAIAYGYWGQGTQVTVSS | low polyreactivity
